Our source for the EC50 values is US20220096653A1, “CONJUGATE COMPRISING LIGAND AND CEACAM5 ANTIBODY FAB FRAGMENT” (ASTELLAS PHARMA INC., priority 2019, published 2022).

As a reminder, the EC50 is the concentration at which the effect is half-maximal. A high value points to lower potency in that assay.

Sequences and labels used below:
B1: (Y-S1-X)p-Fab^2 with Y Gd/DOTA, S1 - (bond), X -Gly-(naph-Ala)-Lys*-Z2(#S)- (Fab, V domains shown)
VH: EVQLVESGGGLVQPGGSLRLSCAASGFNIRDTYMHWVRQAPGKGLEWVARIDPANGNSRYVPKFQGRFTISADTSRNTAYLQMNSLRAEDTAVYYCAPFGYYVSDYAMAYWGQGTLVTVSS
VL: DIQLTQSPSSLSASVGDRVTITCRAGESVDIFGVGFLHWYQQKPGKAPKLLIYRASNLESGIPSRFSGSGSRTDFTLTISSLQPEDFATYYCQQTNEDPYTFGQGTKVEIKR
modifications: labeling may sit on this chain; sites not stated; labeling portion (MW 1123) on amino groups of the Fab, sites and chain not stated; 1-2 per Fab by MS
notes: also called Ex-No 31; conjugate 31
B2: (Y-S1-X)p-Fab^2 with Y Gd/DOTA, S1 -NH-CH2-(1,3-Ph)-C(═O)-, X -Gly-Lys*-Z2(#N)- (Fab, V domains shown)
VH: B1 VH
VL: B1 VL
modifications: labeling may sit on this chain; sites not stated; labeling portion (MW 958) on amino groups of the Fab, sites and chain not stated; 1-3 per Fab by MS
notes: also called Ex-No 9; conjugate 9
B3: (Y-S1-X)p-Fab^2 with Y Gd/DOTA, S1 -NH-CH2-(1,4-Ph)-C(═O)-, X -Met-Gly-Lys*-Z2(#S)- (Fab, V domains shown)
VH: B1 VH
VL: B1 VL
modifications: labeling may sit on this chain; sites not stated; labeling portion (MW 1190) on amino groups of the Fab, sites and chain not stated; 1-3 per Fab by MS
notes: also called Ex-No 38; conjugate 38
B4: (Y-S1-X)p-Fab^2 with Y Gd/DOTA, S1 spacer (a), X -Gly-Lys*-Z2(#N)- (Fab, V domains shown)
VH: B1 VH
VL: B1 VL
modifications: labeling may sit on this chain; sites not stated; labeling portion (MW 936) on amino groups of the Fab, sites and chain not stated; 1-3 per Fab by MS
notes: also called Ex-No 23; conjugate 23
B5: (Y-S1-X)p-Fab^2 with Y Gd/DOTA, S1 -NH-(CH2CH2O)3-CH2-C(═O)-NH-CH2-(1,3-Ph)-C(═O)-, X -Gly-Lys*-Z2(#S)- (Fab, V domains shown)
VH: B1 VH
VL: B1 VL
modifications: labeling may sit on this chain; sites not stated; labeling portion (MW 1248) on amino groups of the Fab, sites and chain not stated; 1-2 per Fab by MS
notes: also called Ex-No 25; conjugate 25
B6: (Y-S1-X)p-Fab^2 with Y Gd/DOTA, S1 - (bond), X -Gly-(diph-Ala)-Lys*-Z2(#S)- (Fab, V domains shown)
VH: B1 VH
VL: B1 VL
modifications: labeling may sit on this chain; sites not stated; labeling portion (MW 1149) on amino groups of the Fab, sites and chain not stated; 1-3 per Fab by MS
notes: also called Ex-No 30; conjugate 30
B7: (Y-S1-X)p-Fab^2 with Y Gd/DOTA, S1 - (bond), X -Gly-Tyr*-CH2-C(═O)-NH-(CH2)2-Z1(#S)- (Fab, V domains shown)
VH: B1 VH
VL: B1 VL
modifications: labeling may sit on this chain; sites not stated; labeling portion (MW 1061) on amino groups of the Fab, sites and chain not stated; 1-3 per Fab by MS
notes: also called Ex-No 7; conjugate 7
B8: (Y-S1-X)p-Fab^2 with Y Gd/DOTA, S1 - (bond), X -Gly-Tyr*-CH2(═O)-NH-(CH2)2-Z1(#N)- (Fab, V domains shown)
VH: B1 VH
VL: B1 VL
modifications: labeling may sit on this chain; sites not stated; labeling portion (MW 960) on amino groups of the Fab, sites and chain not stated; 1-4 per Fab by MS
notes: also called Ex-No 21; conjugate 21
B9: (Y-S1-X)p-Fab^2 with Y Gd/DOTA, S1 - (bond), X -Gly-Lys*-Z2(#N)- (Fab, V domains shown)
VH: B1 VH
VL: B1 VL
modifications: labeling may sit on this chain; sites not stated; labeling portion (MW 825) on amino groups of the Fab, sites and chain not stated; 1-3 per Fab by MS
notes: also called Ex-No 20; conjugate 20
B10: (Y-S1-X)p-Fab^2 with Y Gd/DOTA, S1 -NH-(CH2)2-C(═O)-, X -Gly-Lys*-Z2(#N)- (Fab, V domains shown)
VH: B1 VH
VL: B1 VL
modifications: labeling may sit on this chain; sites not stated; labeling portion (MW 896) on amino groups of the Fab, sites and chain not stated; 1-3 per Fab by MS
notes: also called Ex-No 22; conjugate 22
B11: (Y-S1-X)p-Fab^2 with Y Gd/DOTA, S1 - (bond), X -Met-Ile-Lys*-Z2(#N)- (Fab, V domains shown)
VH: B1 VH
VL: B1 VL
modifications: labeling may sit on this chain; sites not stated; labeling portion (MW 1012) on amino groups of the Fab, sites and chain not stated; 1-2 per Fab by MS
notes: also called Ex-No 10; conjugate 10
B12: [Gd/4arm-DOTA-CH2-(1,4-Ph)-NH-C(═S)-Gly-Phe-Lys*-Z2(#N)]p-Fab^2 (Fab, V domains shown)
VH: B1 VH
VL: B1 VL
modifications: labeling may sit on this chain; sites not stated; labeling portion (MW 1136) on amino groups of the Fab, sites and chain not stated; 1-3 per Fab by MS
notes: also called Ex-No 12; Conjugate No. 12
B13: [Gd/DOTA-[2,5-(1,2,3,4-tetrahydroisoquinoline)]-C(═O)-Met-Gly-Lys*-Z2(#N)]p-Fab^2 (Fab, V domains shown)
VH: B1 VH
VL: B1 VL
modifications: labeling may sit on this chain; sites not stated; labeling portion (MW 1115) on amino groups of the Fab, sites and chain not stated; 1-2 per Fab by MS
notes: also called Ex-No 33; Conjugate No. 33
B14: [Gd/DOTA-NH-CH2-(1,4-Ph)-NH-C(═O)-Met-Ile-NH-(CH2)2-Z1(#N)]p-Fab^2 (Fab, V domains shown)
VH: B1 VH
VL: B1 VL
modifications: labeling may sit on this chain; sites not stated; labeling portion (MW 1074) on amino groups of the Fab, sites and chain not stated; 1-3 per Fab by MS
notes: also called Ex-No 18; Conjugate No. 18
B15: (Y-S1-X)p-Fab^2 with Y Gd/DOTA, S1 spacer (e), X -Met-Gly-Lys*-Z2(#N)- (Fab, V domains shown)
VH: B1 VH
VL: B1 VL
modifications: labeling may sit on this chain; sites not stated; labeling portion (MW 1095) on amino groups of the Fab, sites and chain not stated; 1-2 per Fab by MS
notes: also called Ex-No 32; conjugate 32
B16: (Y-S1-X)p-Fab^2 with Y Gd/DOTA, S1 - (bond), X -Gly-Tyr-NH-(CH2)5-Z1(#S)- (Fab, V domains shown)
VH: B1 VH
VL: B1 VL
modifications: labeling may sit on this chain; sites not stated; labeling portion (MW 1045) on amino groups of the Fab, sites and chain not stated; 1-3 per Fab by MS
notes: also called Ex-No 37; conjugate 37
B17: (Y-S1-X)p-Fab^2 with Y Gd/DOTA, S1 -NH-CH2-(1,3-Ph)-C(═O)-, X -Gly-Tyr*-CH2-C(═O)-NH-(CH2)2-Z1(#N)- (Fab, V domains shown)
VH: B1 VH
VL: B1 VL
modifications: labeling may sit on this chain; sites not stated; labeling portion (MW 1093) on amino groups of the Fab, sites and chain not stated; 1-3 per Fab by MS
notes: also called Ex-No 14; conjugate 14

This assay addresses T1, CEACAM5 (R&D Systems, 4128-CM-050) (human, UniProt P06731 35-685).
T1 construct: Immobilised on the ELISA plate; also called human CEACAM5
T1 sequence (looked up): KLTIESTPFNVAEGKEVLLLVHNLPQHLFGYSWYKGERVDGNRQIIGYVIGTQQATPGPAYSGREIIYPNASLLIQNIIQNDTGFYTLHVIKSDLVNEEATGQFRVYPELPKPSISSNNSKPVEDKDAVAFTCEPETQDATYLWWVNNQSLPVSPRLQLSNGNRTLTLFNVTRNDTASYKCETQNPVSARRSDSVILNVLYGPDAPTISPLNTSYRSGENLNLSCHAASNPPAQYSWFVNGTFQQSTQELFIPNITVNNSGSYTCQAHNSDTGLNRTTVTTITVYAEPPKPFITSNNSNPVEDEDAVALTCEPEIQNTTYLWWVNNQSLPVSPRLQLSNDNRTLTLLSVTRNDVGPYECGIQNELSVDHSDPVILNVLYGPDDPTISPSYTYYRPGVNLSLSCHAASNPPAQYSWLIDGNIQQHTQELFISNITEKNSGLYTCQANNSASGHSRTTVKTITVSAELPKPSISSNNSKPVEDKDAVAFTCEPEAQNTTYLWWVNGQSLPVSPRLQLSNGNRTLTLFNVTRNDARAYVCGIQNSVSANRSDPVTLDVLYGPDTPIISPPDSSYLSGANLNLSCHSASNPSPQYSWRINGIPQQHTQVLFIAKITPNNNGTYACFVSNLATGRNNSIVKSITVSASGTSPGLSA
Briefly: ELISA on immobilised CEACAM5, 4-parameter fit, duplicate. The protocol:
Each anti-human CEACAM5 antibody Fab fragment conjugate prepared in Example 2 was subjected to ELISA to evaluate the binding activity thereof to CEACAM5. In the present test, a phosphate buffer (Nacalai Tesque Inc., 0.1 mol/L-Phosphate Buffer Solution (pH 7.2)) prepared to 10 mM by diluting 10-fold with distilled water was used as a solvent for an antigen immobilization liquid, and 20×PBS/Tween 20 Buffer (Thermo Fisher Scientific Inc., 28352) diluted 20-fold with distilled water was used as a wash liquid. In addition, for bovine serum albumin (BSA) used in the present test, 30% Bovine Serum Albumin solution (Sigma-Aldrich, Inc., A9576-50ML) was added in an appropriate proportion for use. CEACAM5 (R&D Systems, 4128-CM-050) was diluted with a 10 mM phosphate buffer (pH 7.2) to 0.1 μg/mL, and added to a Nunc MaxiSorp White 384 plate (Nunc, 4603272) at 30 μL per well, and the plate was incubated overnight at 4° C. for immobilization. The CEACAM5 immobilization liquid was removed by reverse centrifugation, and then blocking was carried out by adding a PBS/Tween 20 buffer containing 5.0% BSA. Thereafter, the blocking solution was removed by reverse centrifugation, a solution of each CEACAM5 antibody Fab² fragment conjugate described above or a Fab² fragment having no labeling portion (PB009-01) as a control at about 10000 ng/mL was diluted in 14 steps by 3-fold dilution using a PBS/Tween 20 buffer containing 1.0% BSA, and 30 μL was added per well and incubated at room temperature for 60 minutes. The plate was washed 3 times with a PBS/Tween 20 buffer, and Horseradish Peroxidase (HRP)-labeled goat anti-human IgG (H+L chain) antibody (MBL Life Sciences, 206) diluted 1000-fold using a PBS/Tween 20 buffer containing 5.0% BSA was added at 30 μL per well and incubated at room temperature for 30 minutes. The plate was washed 3 times with a PBS/Tween 20 buffer, and ECL Prime Western Blotting DETECTION Reagent (GE Healthcare, RPN2232) as a substrate was added at 30 μL per well. The substrate was incubated at room temperature for 15 minutes, and then a signal value thereof was measured using an Envision counter (PerkinElmer, Inc.).
The test for each antibody was carried out in duplicate, and an EC₅₀ value was calculated using a 4-parameter logistic curve model.
In the case of B1, a half-maximal effect (EC50) was put at 0.3 nM.
Under B2 stands 0.1 nM; under B3, 0.18 nM.
Under B4 stands 0.33 nM; under B5, 0.32 nM; under B6, 0.31 nM.
Molecule B7 showed a half-maximal effective concentration (EC50) of 0.17 nM.
Under B8 stands 0.27 nM; under B9, 0.22 nM.
Molecule B10 displayed an EC50 of 0.32 nM. The EC50 values of the last two molecules are within 1.5-fold of each other.
The molecule B11 came in with a 50% effective concentration (EC50) of 0.11 nM.
Under B12 stands 0.11 nM; under B13, 0.33 nM; under B14, 0.24 nM.
Under B15 stands 0.37 nM; under B16, 0.23 nM; under B17, 0.13 nM.
